# Measurements reported in patent CN111333719A.
# B1: 重叠肽HPV16E7 67-84 (peptide)
# peptide: LCVQSTHVDIRTLEDLLM
# B2: 重叠肽HPV16E7 85-98 (peptide)
# peptide: GTLGIVCPICSQKP
# B3: 重叠肽HPV16E7 73-90 (peptide)
# peptide: HVDIRTLEDLLMGTLGIV
# B4: 重叠肽HPV16E7 49-66 (peptide)
# peptide: RAHYNIVTFCCKCDSTLR
# Key:
# [1] = target: 抗HPV16E7蛋白单抗69A6; test: indirect competition ELISA, peptide at 1μmol/L competes with coated HPV16E7 whole protein for 69A6
# [2] = target: 抗HPV16E7蛋白单抗69A6; test: indirect competition ELISA, peptide at 10μmol/L competes with coated HPV16E7 whole protein for 69A6
Binder,抑制率 [1],抑制率 [2]
B1,47.3%,91.6%
B2,48.6%,92%
B3,56.2%,93.5%
B4,15.6%,16.3%
